This is an account of results in the Human Domainome abundance scans (Beltran et al. 2025).

± gives the uncertainty stated by the source.

The first data set can be described thus: abundance fitness (aPCA) (normalised: wild type 0, dead -1); higher = more abundant; growth selection in yeast, the domain comes from the species named. The following applies: Bacillus caldolyticus.
In turn, Cold shock protein CspB E21R, P41016 registered an abundance fitness of 0.011 ± 0.036.

As for Cold shock protein CspB G22P, P41016, the abundance fitness came to 0.032 ± 0.047. Substance Cold shock protein CspB I18R, P41016 returned an abundance fitness of -0.908 ± 0.044.

Cold shock protein CspB S24E, P41016 registered an abundance fitness of 0.012 ± 0.053. Turning to Cold shock protein CspB V20G, P41016, the abundance fitness came to 0.004 ± 0.039.

Still in this data set, the particulars now being: Homo sapiens.
In turn, Gamma-crystallin C A162C, P07315 gave an abundance fitness of -0.092 ± 0.14. Gamma-crystallin C L167W, P07315 yielded an abundance fitness of -0.575 ± 0.23.

On to Gamma-crystallin C R153W, P07315, for which the abundance fitness was -0.775 ± 0.22. Still for that read-out and setting: the result for “Scaffold attachment factor B1 A41C, Q15424” reads -0.317 ± 0.08.

Take “Scaffold attachment factor B1 A41D, Q15424”: the abundance fitness is -0.204 ± 0.064. In turn, “Scaffold attachment factor B1 A41E, Q15424” came in with an abundance fitness of -0.049 ± 0.062. Same read-out and setting: the figure for “Scaffold attachment factor B1 A41F, Q15424” is -0.145 ± 0.053; for “Scaffold attachment factor B1 A41G, Q15424” it is -0.095 ± 0.063. In turn, “Scaffold attachment factor B1 A41H, Q15424” displayed an abundance fitness of -0.449 ± 0.11. In turn, “Scaffold attachment factor B1 A41I, Q15424” had an abundance fitness of -0.114 ± 0.073. “Scaffold attachment factor B1 A41K, Q15424” registered an abundance fitness of -0.205 ± 0.068. For the substance “Scaffold attachment factor B1 A41L, Q15424”, the abundance fitness is -0.12 ± 0.055. Regarding “Scaffold attachment factor B1 A41M, Q15424”, the abundance fitness was -0.142 ± 0.061.

Consider “Scaffold attachment factor B1 A41N, Q15424”, for which the abundance fitness is -0.311 ± 0.1.

For the substance “Scaffold attachment factor B1 A41Q, Q15424”, the abundance fitness was -0.257 ± 0.072. The substance “Scaffold attachment factor B1 A41R, Q15424” displayed an abundance fitness of -0.12 ± 0.051.

The substance “Scaffold attachment factor B1 A41S, Q15424” showed an abundance fitness of -0.128 ± 0.053. Same read-out and setting: the result for “Scaffold attachment factor B1 A41T, Q15424” reads -0.164 ± 0.059.

“Scaffold attachment factor B1 A41V, Q15424” displayed an abundance fitness of -0.105 ± 0.053. Same read-out and setting: the figure for “Scaffold attachment factor B1 A41W, Q15424” is -0.122 ± 0.049. In turn, “Scaffold attachment factor B1 A41Y, Q15424” displayed an abundance fitness of -0.176 ± 0.069.

Turning to “Scaffold attachment factor B1 A64C, Q15424”, the abundance fitness is -0.016 ± 0.077. In turn, “Scaffold attachment factor B1 A64D, Q15424” returned an abundance fitness of -0.601 ± 0.11.

Take “Scaffold attachment factor B1 A64F, Q15424”: the abundance fitness was -0.317 ± 0.089. On the same count and under the same terms, the result for “Scaffold attachment factor B1 A64G, Q15424” reads -0.527 ± 0.053; that for “Scaffold attachment factor B1 A64H, Q15424”, -0.132 ± 0.082; that for “Scaffold attachment factor B1 A64I, Q15424”, -0.109 ± 0.073. Take “Scaffold attachment factor B1 A64K, Q15424”: the abundance fitness is -0.228 ± 0.08. The same measure, in the same setting: the result for “Scaffold attachment factor B1 A64L, Q15424” reads -0.146 ± 0.052; that for “Scaffold attachment factor B1 A64M, Q15424”, -0.416 ± 0.1; that for “Scaffold attachment factor B1 A64N, Q15424”, -0.551 ± 0.15.

Consider “Scaffold attachment factor B1 A64P, Q15424”, for which the abundance fitness was -0.603 ± 0.087. “Scaffold attachment factor B1 A64Q, Q15424” returned an abundance fitness of -0.162 ± 0.086. In the case of “Scaffold attachment factor B1 A64R, Q15424”, the abundance fitness is -0.236 ± 0.048.

In the case of “Scaffold attachment factor B1 A64T, Q15424”, the abundance fitness was -0.125 ± 0.078. “Scaffold attachment factor B1 A64W, Q15424” registered an abundance fitness of -0.249 ± 0.062. “Scaffold attachment factor B1 A64Y, Q15424” came in with an abundance fitness of -0.519 ± 0.12. On the same count and under the same terms, the figure for “Scaffold attachment factor B1 D33A, Q15424” is -0.303 ± 0.049; for “Scaffold attachment factor B1 D33C, Q15424” it is -0.354 ± 0.061; for “Scaffold attachment factor B1 D33E, Q15424” it is -0.209 ± 0.078. The same measure, in the same setting: the figure for “Scaffold attachment factor B1 D33F, Q15424” is -0.715 ± 0.063.

“Scaffold attachment factor B1 D33G, Q15424” had an abundance fitness of -0.281 ± 0.053. With “Scaffold attachment factor B1 D33H, Q15424”, the abundance fitness is -0.262 ± 0.1. For the substance “Scaffold attachment factor B1 D33I, Q15424”, the abundance fitness is -0.88 ± 0.12. Same read-out and setting: the result for “Scaffold attachment factor B1 D33K, Q15424” reads -0.451 ± 0.069. Regarding “Scaffold attachment factor B1 D33L, Q15424”, the abundance fitness is -0.437 ± 0.06. Regarding “Scaffold attachment factor B1 D33M, Q15424”, the abundance fitness was -0.235 ± 0.055.

In turn, “Scaffold attachment factor B1 D33N, Q15424” registered an abundance fitness of -0.291 ± 0.068.

For “Scaffold attachment factor B1 D33P, Q15424”, the abundance fitness was -0.726 ± 0.069. Substance “Scaffold attachment factor B1 D33Q, Q15424” registered an abundance fitness of -0.192 ± 0.069. Turning to “Scaffold attachment factor B1 D33S, Q15424”, the abundance fitness was -0.15 ± 0.054. “Scaffold attachment factor B1 D33T, Q15424” returned an abundance fitness of -0.308 ± 0.077.

As to “Scaffold attachment factor B1 D33V, Q15424”, the abundance fitness was -0.493 ± 0.054.

With “Scaffold attachment factor B1 D33W, Q15424”, the abundance fitness is -0.644 ± 0.062. Regarding “Scaffold attachment factor B1 D33Y, Q15424”, the abundance fitness was -0.813 ± 0.099. “Scaffold attachment factor B1 D38A, Q15424” had an abundance fitness of -0.388 ± 0.056. With “Scaffold attachment factor B1 D38E, Q15424”, the abundance fitness was -0.095 ± 0.059.

In the case of “Scaffold attachment factor B1 D38F, Q15424”, the abundance fitness was -0.874 ± 0.084.

The substance “Scaffold attachment factor B1 D38G, Q15424” came in with an abundance fitness of -0.558 ± 0.051.

As to “Scaffold attachment factor B1 D38H, Q15424”, the abundance fitness was -0.428 ± 0.089. The substance “Scaffold attachment factor B1 D38I, Q15424” registered an abundance fitness of -0.767 ± 0.11. For the substance “Scaffold attachment factor B1 D38L, Q15424”, the abundance fitness was -0.683 ± 0.055.

On to “Scaffold attachment factor B1 D38M, Q15424”, for which the abundance fitness was -0.536 ± 0.071. With “Scaffold attachment factor B1 D38N, Q15424”, the abundance fitness is -0.414 ± 0.092. “Scaffold attachment factor B1 D38P, Q15424” had an abundance fitness of -0.899 ± 0.057. In the case of “Scaffold attachment factor B1 D38Q, Q15424”, the abundance fitness was -0.107 ± 0.069. In the case of “Scaffold attachment factor B1 D38R, Q15424”, the abundance fitness was -0.618 ± 0.055. For the substance “Scaffold attachment factor B1 D38S, Q15424”, the abundance fitness was -0.446 ± 0.059. The substance “Scaffold attachment factor B1 D38T, Q15424” yielded an abundance fitness of -0.307 ± 0.072. The substance “Scaffold attachment factor B1 D38V, Q15424” showed an abundance fitness of -0.629 ± 0.052. On the same count and under the same terms, the figure for “Scaffold attachment factor B1 D38W, Q15424” is -0.742 ± 0.067; for “Scaffold attachment factor B1 D38Y, Q15424” it is -0.913 ± 0.12.

Substance “Scaffold attachment factor B1 D49A, Q15424” displayed an abundance fitness of -0.329 ± 0.071.

Consider “Scaffold attachment factor B1 D49E, Q15424”, for which the abundance fitness was -0.346 ± 0.077. Still for that read-out and setting: the figure for “Scaffold attachment factor B1 D49F, Q15424” is -0.762 ± 0.13. Take “Scaffold attachment factor B1 D49G, Q15424”: the abundance fitness was -0.444 ± 0.062. “Scaffold attachment factor B1 D49H, Q15424”: the abundance fitness is -0.396 ± 0.097. The same measure, in the same setting: the figure for “Scaffold attachment factor B1 D49I, Q15424” is -0.514 ± 0.1.

“Scaffold attachment factor B1 D49K, Q15424” yielded an abundance fitness of -0.275 ± 0.072. “Scaffold attachment factor B1 D49L, Q15424” gave an abundance fitness of -0.393 ± 0.061. In turn, “Scaffold attachment factor B1 D49M, Q15424” registered an abundance fitness of -0.464 ± 0.062.

As for “Scaffold attachment factor B1 D49N, Q15424”, the abundance fitness is -0.14 ± 0.061. On the same count and under the same terms, the result for “Scaffold attachment factor B1 D49P, Q15424” reads -0.285 ± 0.068; that for “Scaffold attachment factor B1 D49Q, Q15424”, -0.328 ± 0.072; that for “Scaffold attachment factor B1 D49R, Q15424”, -0.344 ± 0.052. “Scaffold attachment factor B1 D49S, Q15424”: the abundance fitness is -0.219 ± 0.062. The substance “Scaffold attachment factor B1 D49T, Q15424” registered an abundance fitness of -0.552 ± 0.081. As for “Scaffold attachment factor B1 D49V, Q15424”, the abundance fitness is -0.408 ± 0.057. The same measure, in the same setting: the result for “Scaffold attachment factor B1 D49Y, Q15424” reads -0.5 ± 0.057; that for “Scaffold attachment factor B1 D67C, Q15424”, -0.244 ± 0.063; that for “Scaffold attachment factor B1 D67E, Q15424”, -0.152 ± 0.089. The same measure, in the same setting: the result for “Scaffold attachment factor B1 D67F, Q15424” reads -0.293 ± 0.082.
